Experimental data taken from US20240425587A1 (Alector, published 2024).

B1: A10 (antibody, V domains shown)
VH: QVQLVQSGAEVKKPGASVKVSCKASGYTFTDYYIHWVRQAPGQGLEWMGWMNPNSGNTGYAQKFQGRVTMTRDTSTSTVYMELSSLRSEDTAVYYCAREGSSGWYVDYWGQGTLVTVSS
VL: DIQMTQSPSSLSASVGDRVTITCQASQDISQFLNWYQQKPGKAPKLLIYDAYSLQSGVPSRFSGSGSGTDFTLTISSLQPEDFATYYCQQANSFPLTFGQGTKVEIK
notes: phage campaign
B2: D5 (antibody, V domains shown)
VH: EVKLDETGGGLVQPGRPMKLSCVASGFTFSDYWMNWVRQSPEKGLEWVAQIRNKLYNYETYYSDSVKGRFTISRDDSKSSVYLQMNNLRAEDMGIYYCTVGLAMDYWGQGTSVTVSS
VL: DIQMTQSSSSFSVSLGDRVTITCKASEDIYNRLAWYQQKPGNAPRLLISGATSLETGVPSRFSGSGSGKEYTLNITSLQTEDVATYYCQQYWSTPTFGGGTKLEIK
notes: second hybridoma campaign
B3: D2 (antibody, V domains shown)
VH: QIQLGQSGPELKRPRETVKISCKASGYTFTTYGMSWVKQAPGKGLRWMGWINTHSGVPAYADDFKGRFAFSLETSANTAFLQINNLENEDTATYFCAKDYNWGMDYWGQGTSVIVSS
VL: QLVLTQSSSASFSLGASAKLTCTLSSQHSTYTIEWYQQQPLKPPKYVMEVKKDGSHSTGDGIPDRFSGSSSGADRYLSISNIQPEDEAIYICGVGDSIKEQFVYVFGGGTKVTVL
notes: second hybridoma campaign
B4: D3 (antibody, V domains shown)
VH: QVQLQQPGADLVKPGASVKVSCKTSGYSFTSYWIHWVKQRPGQGLEWIGRVHPSDSDTDYSQKFKGKATLTVDDSSSTVYMQLTNLTSEDSAVYYCAIEWGYLFDYWGQGTTLSVSS
VL: DIVLTQSPISLAVSLGQRATISCWASQSVSTSSYSYVHWYQQKPGQPPKLLIKYASNLDSGVPARFSGSGSGTDFTLNIHPVDEEDTATYYCHHNWEIPYTFGGGTKLEIK
notes: second hybridoma campaign
B5: D7 (antibody, V domains shown)
VH: QVQLKESGPGLVAPSQSLSITCTVSGFSLTSYAISWVRQPPGKGLEWLGIIWTGGDTNYNSGLKSRLSITKDNSKSQVFLKMNSLQTDDTSRYYCARNSLFYGITPYYFDYWGQGTTLTVSS
VL: DIVLTQSPATLSVTPGDSVSLSCRASQSIRNDLHWYQQKSHESPRLLIKYASQSISGIPSRFSGSGSGTDFTLTINVLETEDFGMYFCQQSNGWPLTFGAGTKLELK
notes: second hybridoma campaign
B6: D4 (antibody, V domains shown)
VH: QVQLQQSGADLARPGASVKLSCKASGYTFTSYGIAWMKQRTGQGLEWIGEIYPRSGNPYYNDRFKGKATLTADRSSNTTYMELRSLTSEDSAVYFCARWVGGIIDYWGQGTSVTVSS
VL: DIVMTQSQKFMSTSIGDRVSVTCKASQNVGFNVAWYQQKPGQSPKPLIYSASYRYSGVPDRFTGSESGTEFTLIISNVQSEDLAEYFCQQYDSYPFTFGSGTNLEIK
notes: second hybridoma campaign
B7: E20 (antibody, V domains shown)
VH: QIQLVQSGPELKKPGETVKISCKASGYTFTTYGMSWVKQAPGKGLKWMGWINTYSGVPTYADDFKGRFAFSLETSASTAYLQINNLKNEDTATYFCARYDGYLDYWGQGTTLTVSS
VL: DIVLTQSPASLAVSLGQRATISCKASQSVDYDGDSYMNWYQQKPGQPPKLLIYAASNLESGIPARFSGSGSGTDFTLNIHPVEEEDAATYYCQQSNEDLTFGSGTKLEIK
notes: B-cell cloning campaign (mice)
B8: D6 (antibody, V domains shown)
VH: EVQLQQSGPELVKPGASVKMSCKASGYTFTDYYMDWVKQSHGESFEWIGRVNPYTGDSSYNQKFKGKATLTVDKSSNTAYLEFNSLTSEGSAVYYCARSDGYHYKYAMDYWGQGTSVTVSS
VL: DVVMTQTPLSLPVSLGDQASISCRSSQSLVHSTGNTYLHWYLQKPGQSPNLLIYKISNRFSGVPDRFSGSGSGTDFTLKISRVEAEDLGVYFCSQSTHVPYTFGGGTKLEIK
notes: second hybridoma campaign; same VH/VL as D8
B9: D8 (antibody, V domains shown)
VH: B8 VH
VL: B8 VL
notes: second hybridoma campaign; same VH/VL as D6
B10: B1 (antibody, V domains shown)
VH: DVKLVESGGGLVKLGGSLKLSCAASGFTFSSYYMSWVRQTPEKRLEWVAAINSNGDRSYYPDTVKGRFTISRDNAKNTLYLQMSSLKSEDTAFYYCASHGNYYGSPWFAYWGQGTLVTVSA
VL: ETTVTQSPASLSVATGEKVTIRCKTSTDIDDDMNWYQQKPGEPPKLLISEGNTLRPGVPSRFSSSGYGTDFVFTIENTLSEDVADYYCLQNDHMPLTFGGGTKLEIK
notes: as for B7
B11: D1 (antibody, V domains shown)
VH: QVQLQQSGVELARPGASVKLSCKASGYNFTSYGINWVKQRTGQGLEWIGKSYPTSGNNYYNEKFKGKATVTADKSSSTAYMELRSLTSEDSAVYFCGVWYGSLFAHWGQGTLVTVTA
VL: DIVMTQSQKFMSTSVGDRVRVTCKASQNVGFNVAWYQQKPGQSPKVLIYSASYRYSGVPDRFTGSGSGTDFTLTITNVQSEDLAEYFCHQYNNFPFTFGSGTKLEIK
notes: second hybridoma campaign

molecular target: T1, human PILRA, c-term His-Avi tag (human, UniProt Q9UKJ1 20-197, limits assumed); experiment: SPR (Biacore), antibody captured, PILRA as analyte
T1 construct: not shown: C-terminal His-Avi tag
Description: Experiments were performed to determine the kinetics of anti-PILRA antibody binding to human […]. The assay is depicted in FIG. 6. A rabbit anti-PILRA was used as a positive control, and H1 LALAPS was used as a negative control. Human PILRA (human PILRA, c-term His-Avi tag, 0.68 mg/mi) was used as the antigen. The running buffer was HBSTE/0.5% BSA, pH 7.4, and the regeneration solution was 10 mM glycine-HCl (pH 2.1). In the assay, antibodies were captured at 10 μg/ml by immobilized anti-huFc or anti-msFc on a Biacore CM5 chip, and human PILRA flowed at 33, 100, and 300 nM. The surface was regenerated after each analyte, and all curves were double-referenced with buffer injections.

T1 sequence (Q9UKJ1 20-197 limits assumed): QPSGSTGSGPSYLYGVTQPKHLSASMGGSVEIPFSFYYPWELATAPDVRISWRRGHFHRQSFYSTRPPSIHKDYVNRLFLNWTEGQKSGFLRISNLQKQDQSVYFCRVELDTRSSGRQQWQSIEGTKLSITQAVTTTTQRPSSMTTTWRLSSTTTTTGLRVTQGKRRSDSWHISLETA

Binder	Kd [nM]	koff [s⁻¹]	kon [M⁻¹ s⁻¹]	t½ [min]
B1	42.9	0.0054	130000	–
B2	36.8	0.0014	37000	8.5
B3	< 1.3	< 0.0001	75000	–

molecular target: T2, human PILRA, G78 variant, ectopically expressed on 293 cells (human, UniProt Q9UKJ1 20-303); experiment: flow cytometry; blocking of NPDC1-hIgG1 binding to 293 cells expressing human PILRA G78
T2 construct: the cells are labelled G78; also called hA G78 OE; hA
T2 sequence (Q9UKJ1 other isoform, or with tags, fused parts or gaps mutant): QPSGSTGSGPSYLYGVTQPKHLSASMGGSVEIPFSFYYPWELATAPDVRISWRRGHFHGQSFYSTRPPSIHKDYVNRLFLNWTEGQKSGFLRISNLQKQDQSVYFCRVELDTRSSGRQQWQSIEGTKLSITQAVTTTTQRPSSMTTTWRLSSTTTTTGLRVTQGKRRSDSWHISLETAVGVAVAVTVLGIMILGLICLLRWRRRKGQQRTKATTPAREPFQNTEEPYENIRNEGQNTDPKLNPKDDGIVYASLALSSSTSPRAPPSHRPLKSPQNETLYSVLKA

Binder	IC50 [µg/mL]
B1	0.48

molecular target: T3, murine PILRB, ectopically expressed on 293 cells (murine, UniProt Q2YFS2 29-224); experiment: flow cytometry, 293 cells expressing target
T3 construct: whole, on cells; also called mB
Description: (§1) Briefly, conditioned media containing antibodies were incubated with 293 cells for 30 min at 4° C., washed twice, and then detected with anti-mouse IgG Alexa 647.

T3 sequence (Q2YFS2 29-224): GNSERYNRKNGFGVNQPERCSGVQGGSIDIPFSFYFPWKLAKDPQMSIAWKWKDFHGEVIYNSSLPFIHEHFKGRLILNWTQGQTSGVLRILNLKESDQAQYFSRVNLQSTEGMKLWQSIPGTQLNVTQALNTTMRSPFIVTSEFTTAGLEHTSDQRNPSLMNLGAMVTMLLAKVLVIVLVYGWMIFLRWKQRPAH

Binder	binding result
B4	no binding
B5	no binding
B6	no binding
B1	no binding
B2	no binding
B7	no binding
B3	no binding
B8	no binding
B9	no binding
B10	no binding
B11	no binding

molecular target: T2, human PILRA, G78 variant, ectopically …; experiment: flow cytometry, 293 cells expressing target
Description: as §1

Binder	EC50 [µg/mL]
B4	0.2
B5	0.3
B6	0.4
B1	1.1
B2	1
B7	33.5
B3	3.4
B8	0.12
B9	0.1
B10	0.96
B11	0.3

molecular target: cynomolgus PILRA, ectopically expressed on 293 cells (cynomolgus monkey); experiment: flow cytometry, 293 cells expressing target
Description: as §1

cynomolgus PILRA, ectopically expressed on 293 cells (cynomolgus monkey), sequence (chain, as listed by the source): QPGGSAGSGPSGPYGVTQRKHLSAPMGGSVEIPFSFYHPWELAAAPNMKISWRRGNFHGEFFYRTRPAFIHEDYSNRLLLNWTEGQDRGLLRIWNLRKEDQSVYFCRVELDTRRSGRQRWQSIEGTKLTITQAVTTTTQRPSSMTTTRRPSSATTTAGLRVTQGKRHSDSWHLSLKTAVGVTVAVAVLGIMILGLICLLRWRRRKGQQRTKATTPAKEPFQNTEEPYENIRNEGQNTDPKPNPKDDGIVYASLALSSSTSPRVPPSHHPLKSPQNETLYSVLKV

Binder	binding result	EC50 [µg/mL]
B4	no binding	–
B5	–	1
B6	no binding	–
B1	–	17.3
B2	no binding	–
B7	no binding	–
B3	no binding	–
B8	–	0.05
B9	–	0.1
B10	–	2
B11	no binding	–

molecular target: T4, human PILRB, ectopically expressed on 293 cells (human, UniProt Q9UKJ0 20-227); experiment: flow cytometry, 293 cells expressing target
T4 construct: also called hB
Description: as §1

T4 sequence (Q9UKJ0 20-227): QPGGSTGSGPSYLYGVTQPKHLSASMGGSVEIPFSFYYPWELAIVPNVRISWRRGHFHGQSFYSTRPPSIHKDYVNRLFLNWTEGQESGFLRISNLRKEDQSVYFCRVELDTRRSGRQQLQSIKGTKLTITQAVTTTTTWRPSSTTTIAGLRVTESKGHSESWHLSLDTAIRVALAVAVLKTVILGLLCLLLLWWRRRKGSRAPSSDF

Binder	binding result	EC50 [µg/mL]
B4	no binding	–
B5	–	21.2
B6	no binding	–
B1	no binding	–
B2	no binding	–
B7	no binding	–
B3	no binding	–
B8	–	0.47
B9	–	0.35
B10	no binding	–
B11	no binding	–

molecular target: T5, murine PILRA, ectopically expressed on 293 cells (murine, UniProt Q2YFS3 32-302); experiment: flow cytometry, 293 cells expressing target
T5 construct: also called mA
Description: as §1

T5 sequence (Q2YFS3 32-302): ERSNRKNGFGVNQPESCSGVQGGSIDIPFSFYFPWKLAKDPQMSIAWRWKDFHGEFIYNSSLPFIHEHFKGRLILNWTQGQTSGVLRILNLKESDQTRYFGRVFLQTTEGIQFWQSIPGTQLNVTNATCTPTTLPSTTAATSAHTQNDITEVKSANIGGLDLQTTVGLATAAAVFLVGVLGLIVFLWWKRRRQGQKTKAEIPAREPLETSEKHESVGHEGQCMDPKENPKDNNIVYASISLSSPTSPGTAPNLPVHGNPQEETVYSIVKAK

Binder	binding result
B4	no binding
B5	no binding
B6	no binding
B1	no binding
B2	no binding
B7	no binding
B3	no binding
B8	no binding
B9	no binding
B10	no binding
B11	no binding

molecular target: T6, PILRA Fc (soluble human PILRA) (human, UniProt Q9UKJ1 20-197, limits assumed); experiment: flow cytometry; blocking of PILRA Fc binding to human CD3+ T cells (Donor 1019)
T6 construct: also called soluble PILRA; not shown: Fc part, detected with anti-human IgG
Description: The ability of conditioned media samples containing antibodies to inhibit the binding of PILRA Fc to human CD3+ T cells was assessed. Briefly, conditioned media samples containing antibodies were incubated with 1.25 ug/ml PILRA Fc for 30 min at 4° C. and then added to human T cells. After 30 minutes incubation at 4° C., cells were washed, and bound PILRA Fc was detected with anti-human IgG Alexa 647. Cells were analyzed by flow cytometry on FACS Canto II, and for all cell lines, the amount of PILRA Fc binding (MIFI) and the percentage of PILRA Fc binding in the presence of conditioned media relative to PILRA Fc binding alone was calculated. Several antibodies inhibited binding of PILRA Fc to human T cells, and a few antibodies enhanced PILRA-Fc binding to T cells. Antibodies that show enhancement in this assay may block cis inhibition to promote trans interactions or may allosterically activate to enhance trans interactions without blocking cis.

T6 sequence (Q9UKJ1 20-197 limits assumed): as the sequence (Q9UKJ1 20-197 limits assumed) above

Binder	IC50 [µg/mL]
B4	2.9
B5	5.75
B6	3.77
B2	4.56
B7	5.1
B3	3.3
B8	3.13
B9	2
B10	2.2
B11	1.6
